Reference: patent US20190060480A1 (NATIONAL CANCER CENTER JAPAN, published 2019)

T1: human transmembrane protein 180 (TMEM-180) (human, UniProt Q14CX5 1-517)
T1 construct: Membrane protein; also called TMET-180
T1 sequence: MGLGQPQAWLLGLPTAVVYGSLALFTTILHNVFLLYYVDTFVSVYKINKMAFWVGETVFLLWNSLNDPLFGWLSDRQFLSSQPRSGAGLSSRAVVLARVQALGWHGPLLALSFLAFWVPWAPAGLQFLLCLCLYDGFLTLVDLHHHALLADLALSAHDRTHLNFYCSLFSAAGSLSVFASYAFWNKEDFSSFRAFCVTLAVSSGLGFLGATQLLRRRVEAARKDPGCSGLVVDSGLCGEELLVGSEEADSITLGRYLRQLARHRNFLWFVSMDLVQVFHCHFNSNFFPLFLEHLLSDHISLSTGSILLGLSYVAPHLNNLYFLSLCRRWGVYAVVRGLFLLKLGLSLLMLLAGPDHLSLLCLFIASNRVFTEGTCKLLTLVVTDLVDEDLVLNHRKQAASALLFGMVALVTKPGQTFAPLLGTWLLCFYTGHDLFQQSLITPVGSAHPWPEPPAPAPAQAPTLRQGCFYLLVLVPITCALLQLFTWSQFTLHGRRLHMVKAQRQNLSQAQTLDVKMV


Columns and labels:
[1] = target: T1, human transmembrane protein 180 …; assay: flow cytometry on cancer cell lines, hybridoma supernatant
Protocol: The plate was centrifuged for 3 minutes at 440×g and 4° C. followed by removing the supernatant, adding antibody-producing hybridoma culture supernatant or antibody solution to the cell pellet at 50 μL/well and suspending therein. After allowing to react for 45 minutes on ice, the plate was washed three times with a mixture of 0.1% BSA, 2 mM EDTA and PBS at 200 μL/well. The supernatant was removed and secondary antibody was added to the cell pellet at 50 μL/well followed by suspending the cells therein. AlexaFluor 647 goat anti-rat IgG (H-L) (Life Technologies Corporation) was used for the secondary antibody after diluting 400-fold with a mixture of 0.1% BSA, 2 mM EDTA and PBS. After allowing to react for 45 minutes on ice, the plate was washed three times with a mixture of 0.1% BSA, 2 mM EDTA and PBS at 200 μL/well. After removing the supernatant, 50 ng/mL of propidium iodide, 0.1% BSA, 2 mM EDTA and PBS were added to the cell pellet at 250 μL/well followed by suspending therein. The cells stained in this manner were measured using a flow cytometer such as the Guava easyCyte 8HT (Merck Millipore Corporation) followed by analysis of the resulting data using FlowJO (Tomy Digital Biology Co., Ltd.). FACS analysis was carried out using colon cancer, brain tumor and hematologic cancer.
(§1) Flow cytometry was carried out in accordance with the procedure described in the above-mentioned section 3. […] The supernatant of a culture of hybridoma producing rat IgM antibody clone 365 was used as a negative control after similarly diluting to 1 μg/mL. […] A mixture of RPMI and 10% FBS was used to dilute each of the antibodies. Furthermore, antibody concentration in the hybridoma culture supernatant was measured by rat IgM-specific ELISA (Bethyl Laboratories).

[2] = target: T1, human transmembrane protein 180 …; assay: flow cytometry, DLD-1 parent line against TMEM-180 knockout line (considerable left shift in the knockout)
Protocol: After removing the supernatant, 50 ng/mL of propidium iodide, 0.1% BSA, 2 mM EDTA and PBS were added to the cell pellet at 250 μL/well followed by suspending therein. The cells stained in this manner were measured using a flow cytometer such as the Guava easyCyte 8HT (Merck Millipore Corporation) followed by analysis of the resulting data using FlowJO (Tomy Digital Biology Co., Ltd.). FACS analysis was carried out using colon cancer, brain tumor and hematologic cancer.
as §1

[3] = target: T1, human transmembrane protein 180 …; assay: FACS on cancer-derived cell lines (Table 23)

| Binder | binding result [1] | binding result [3] | other results |
| --- | --- | --- | --- |
| rat IgM antibody clone 101 (antibody, V domains shown, Rat IgM) VH: QVQLKETGPGLVQPTQTLSITCTVSGFSLTSYYMQWVRQTPGKGLEWMGFIRSGGSTEYNSEFKSRLSISRDTSKNQVFLKMNSLKTEDTGVYYCARAFYGGYYFDYWGQGVMVTVSS VL: DIVMTQSPTSISISVGERVTMNCKASQNVGSNVDWYQQKTGQSPKLLIYKASNRYTGVPDRFTGSGSGTDFTFTISNMQAEDLAVYYCMQSNTKYTFGAGTKLELK | binds | – | – |
| rat IgM antibody clone 98 (antibody, V domains shown, Rat IgM from a hybridoma; also called 98 antibody; IgM 98) VH: QVQLKESGPGLVQPSQTLSLTCTVSGFSLTRYNVHWVRQPTGKGLEWMGVIWTGGSTDYNSALKSRLSISRDTSKSQVFLKMNSLQTEDIATYYCARDLGYWGQGVMVTVSS VL: DIVMTQTPLSLSVAIGQSASISCKSSQSLKYRDGKTYLNWVFQSPGQSPKRLIYQVSKLDSGVPDRFSGTGSETDFTLKISRVEAEDLGVYYCCQGSYSPHTFGAGTKLELK | binds | – | – |
| rat-human chimeric antibody clone 98 (antibody, IgG1, V domains shown, Clone 98 variable regions on human constant regions (IgG1), expressed in 293T cells; also called human chimeric IgG1 antibody; human chimeric IgG antibody) VH: QVQLKESGPGLVQPSQTLSLTCTVSGFSLTRYNVHWVRQPTGKGLEWMGVIWTGGSTDYNSALKSRLSISRDTSKSQVFLKMNSLQTEDIATYYCARDLGYWGQGVMVTVSS VL: DIVMTQTPLSLSVAIGQSASISCKSSQSLKYRDGKTYLNWVFQSPGQSPKRLIYQVSKLDSGVPDRFSGTGSETDFTLKISRVEAEDLGVYYCCQGSYSPHTFGAGTKLELK | – | – | binding result [2]: binds |
| anti-TMEM-180 antibody clone 1052 (antibody, V domains shown, Rat IgM; also called 1052 antibody) VH: QVQLKESGPGLMQPSETLSLTCTVSGFSLTSNGVGWVRQPLGKGLVWMGTIWTGGGTNYNSGVQSRLSISRDTSKSQVFLKMNSLQPEDTGTYYCAREYMGFDYWGQGVMVTVSS VL: NTVMTQSPTSMFTSVGDRVTMSCKASQNVGINVGWYQQKTGQSPKRLIYWASNRDTGVPDRFTGSGSGTDFTLTISNMQAEDPAIYYCLQHNSYPRTFGGGTKLELK | – | binds | – |

Now from value to binder, other results behind:

| binding result [1] | binding result [3] | Binder | other results |
| --- | --- | --- | --- |
| binds | – | anti-TMEM-180 antibody clone 212 (antibody, V domains shown, Rat IgM) VH: EVQLVESGGGLVQPGNSLKLSCAASGFTFSDYAMAWVRQSPKKGLEWVATIIYDGSSTYYRDSVKGRFTISRDNAKSTLYLQMDSLRSEDTATYYCATHWYWYFDFWGPGTMVTVSS VL: DIQMTQSPASLSASLGETVSIECLASEGISNDLAWYQQKSGKSPQLLIYAASRLQDGVPSRFSGSGSGTRYSLKISGMQPEDEADYFCQQSYKYPLTFGSGTKLEIK | – |
| – | binds | anti-TMEM-180 antibody clone 1105 (antibody, V domains shown, Rat IgM; also called 1105 antibody) VH: QVQLKESGPGLMQPSETLSLTCTVSGFSLTSNGVGWVRQPLGKGLVWMGTIWSGGGTNYNSAVQSRLSITRDTSKSQVFLKMNSLQPEDTGTYYCAREEKGFAYWGQGTLVTVSS VL: NIVMTQSPTSMSTSVGDRVTMSCKASQNVGINVGWYQQKTGQSPKRLIYWASNRDTGVPDRFTGSGSGTDFTLTISNMQAEDPAIYYCLQHNSYPRAFGGGTKLELR | – |
